Results from doi:10.1101/2020.06.22.20137695.

Tests used:
[1] = target: HCoV-HKU1 spike protein, recombinant soluble ectodomain trimer (HCoV-HKU1) (UniProt Q0ZME7); assay: SEC
[2] = target: HCoV-OC43 spike protein, recombinant soluble ectodomain trimer (HCoV-OC43 | bacteriophage T4) (UniProt P36334); assay: SEC

Substance	stoichiometry N [1]	stoichiometry N [2]
HCoV-HKU1 spike protein, recombinant soluble ectodomain trimer (from UniProt Q0ZME7 13-1295) (domain or fragment)	3	
HCoV-OC43 spike protein, recombinant soluble ectodomain trimer (from UniProt P36334 14-1297) (domain or fragment)		3
